# Source: US20250019429A1 (Janssen / Centocor, published 2025)
# Experiments:
# recombinant human TNFα [1] = molecular target: T1, recombinant human TNFα (human, UniProt P01375 77-233); test: inhibition of 125I-TNFα binding to plate-coated p55-sf2 by hybridoma supernatant
# T1 construct: also called huTNFα; tumor necrosis factor alpha
# Method: (§1) Assay for Inhibition of TNF Binding to Receptor. […] 50:1 of p55-sf2 at 0.5: g/ml in PBS was added to Optiplates to coat the wells during a one-hour incubation at 37° C. Serial dilutions of the eight TNV cell supernatants were prepared in 96-well round-bottom plates using PBS/0.1% BSA as diluent. […] The mixture was preincubated for one hour at RT. […] After 2 hrs at RT, Optiplates were washed three times with PBS-Tween. […] of Microscint-20 was added and the cpm bound determined using the TopCount gamma counter.
# recombinant human TNFα [2] = molecular target: T1, recombinant human TNFα; test: competition: mAb in hybridoma supernatant preincubated with 125I-TNFα (5 ng/ml), then 125I-TNFα bound to plate-coated p55-sf2 counted as cpm
# Method: Although eight TNV mAb samples were tested in these experiments, for simplicity three of the mAbs that were shown by DNA sequence analyses to be identical to one of the other TNV mAbs (see Section 5.2.2) are not shown here. Each sample was tested in duplicate. The results shown are representative of two independent experiments.
# as §1
# recombinant human TNFα [3] = molecular target: T1, recombinant human TNFα; test: cell-based or functional assay
"fold better at blocking TNF binding, against TNV118 and TNV14 (recombinant human TNFα [1]) [fold]",IC50 (read off the curve) (recombinant human TNFα [2]) [ng/mL],neutralizing TNFα bioactivity (recombinant human TNFα [3]),Binder
~4,~4,4 fold (against TNV14),"TNV148 (antibody, human IgG1, kappa, V domains shown, Hybridoma-derived fully human IgG1 kappa; also called GenTNV148.26.12; C420A) VH: QVQLVESGGGVVQPGRSLRLSCAASGFIFSSYAMHWVRQAPGNGLEWVAFMSYDGSNKKYADSVKGRFTISRDNPKNTLYLQMNSLRAEDTAVYYCARDRGIAAGGNYYYYGMDVWGQGTTVTVSS VL: EIVLTQSPATLSLSPGERATLSCRASQSVYSYLAWYQQKPGQAPRLLIYDASNRATGIPARFSGSGSGTDFTLTISSLEPEDFAVYYCQQRSNWPPFTFGPGTKVDIKR"
~4,–,–,"TNV86 (antibody, human IgG1, kappa, V domains shown, also called GenTNV86.14.34; C417A) VH: QVQLVESGGGVVQPGRSLRLSCAASGFIFSSYAMHWVRQAPGNGLEWVAFMSYDGSNKKYADSVKGRFTISRDNPKNTLYLQMNSLRAEDTAVYYCARDRGIAAGGNYYYYGMDVWGQGTTVTVSS VL: EIVLTQSPATLSLSPGERATLSCRASQSVYSYLAWYQQKPGQAPRLLIYDASNRATGIPARFSGSGSGTDFTLTISSLEPEDFAVYYCQQRSNWPPFTFGPGTKVDIKR"
